Experiments:
[1] = target: β subunit of the oxygenase component of 3-nitrotoluene dioxygenase (3NTDO-ODS2) from Diaphorobacter sp. strain DS2 (Diaphorobacter sp. strain DS2); test: crystal structure; oxygenase 3NTDO-ODS2 (α and β co-expressed and co-purified), hanging drop vapor diffusion at 277 K, 0.2M sodium citrate tribasic and 20% PEG 3350 pH 8.3; molecular replacement with 1NDO; 2.9 Å
[2] = target: α subunit of the oxygenase component of 3-nitrotoluene dioxygenase (3NTDO-ODS2) from Diaphorobacter sp. strain DS2 (Diaphorobacter sp. strain DS2); test: as above

Substance	stoichiometry N [1]	stoichiometry N [2]
β subunit of the oxygenase component of 3-nitrotoluene dioxygenase (3NTDO-ODS2) from Diaphorobacter sp. strain DS2 (natural protein)	3	
α subunit of the oxygenase component of 3-nitrotoluene dioxygenase (3NTDO-ODS2) from Diaphorobacter sp. strain DS2 (natural protein)		3

— publication PMC5407579
